What is called Kd is the free concentration of one partner at which half of the binding sites on the other are occupied at equilibrium, for simple one-to-one binding. Broadly, the koff is the first-order rate constant of dissociation. A word on the kon: it is a measure of how fast the partners come together. A word on the EC50: it is the concentration giving half of the maximal effect. For orientation: IC50 means the concentration needed to halve the response being measured.

Assay [1] deals with T1, Recombinant cynomolgus monkey TSLP-his (cynomolgus monkey).
T1 construct: Prepared in-house; Amine-coupled to CM5 chip in SPR, coated on plates in the indirect ELISA; also called cynomolgus TSLP; cynomolgus TSLP-his protein
T1 chain: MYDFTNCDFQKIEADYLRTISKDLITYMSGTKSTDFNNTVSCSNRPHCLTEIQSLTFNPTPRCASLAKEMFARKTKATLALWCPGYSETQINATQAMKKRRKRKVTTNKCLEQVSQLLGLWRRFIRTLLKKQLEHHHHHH
Description: indirect ELISA on coated cynomolgus TSLP-his. Background: In an ELISA, binding on a coated surface is turned into a signal by an enzyme label.

For assay [2], the target named is T2, Recombinant human TSLP-his (human, UniProt Q969D9 29-159).
T2 construct: Prepared in-house; Amine-coupled to CM5 chip in SPR, loaded on APS sensors in Octet, biotin-labeled in the capture ELISA, unlabeled in the cell functional assays; also called human TSLP-his protein
In words: SPR, Biacore T200; TSLP-his amine-coupled to CM5 chip, antibody as analyte; 1:1 Langmuir fit. For orientation: Surface plasmon resonance follows binding to a sensor surface in real time, without labels.

The target in assay [3] is T2, Recombinant human TSLP-his. Description: capture ELISA: antibody captured on anti-IgG Fc coat, biotin-labeled human TSLP-his detected with streptavidin-HRP.
In assay [4] the target is T3, human TSLP-Fc (human, biotin-labeled).
T3 construct: Prepared in-house; also called biotin-labeled human TSLP-Fc; TSLP-Fc-biotin
In words: competitive ELISA: antibody pre-mixed with biotin-labeled human TSLP-Fc; blocked binding to coated human TSLPR-Fc/IL7Ra-Fc.

The target in assay [5] is T3, human TSLP-Fc. Description: cell-based ligand-blocking FACS: antibody pre-mixed with human TSLP-Fc; blocked binding to BAF3-3E6 cells expressing human TSLPR and IL7R; lower plateau at MFI about 550 (partial blocking).
The target in assay [6] is T1, Recombinant cynomolgus monkey TSLP-his. In words: SPR, BIAcore; protocol of Example 2.
Assay [7] has the same target. In words: indirect ELISA on coated cynomolgus TSLP-his.
Assay [8] has the same target. In words: SPR, Biacore T200; cynomolgus TSLP-his amine-coupled to CM5 chip, antibody as analyte; 1:1 Langmuir fit.
The target of assay [9] is T3, human TSLP-Fc. Description: competitive ELISA: antibody pre-mixed with biotin-labeled human TSLP-Fc; blocked binding to coated Tezepelumab.
Assay [10] has as its target T3, human TSLP-Fc. Described as above. This is another data set of the same source.
In assay [11] the target is T3, human TSLP-Fc. The description is as above. This is another data set of the same source.
Assay [12] addresses T3, human TSLP-Fc. Described as above. This is another data set of the same source.
Assay [13] concerns the target T3, human TSLP-Fc. In words: competitive ELISA: antibody pre-mixed with biotin-labeled human TSLP-Fc; blocked binding to coated human TSLPR-Fc/IL7Ra-Fc. This is another data set of the same source.
For assay [14], the target named is T3, human TSLP-Fc. The assay is described as above. The source holds these as a separate data set.
The target of assay [15] is T3, human TSLP-Fc. The assay is described as above. The source holds these as a separate data set.
For assay [16], the target named is T3, human TSLP-Fc. In words: cell-based ligand-blocking FACS: antibody pre-mixed with human TSLP-Fc; blocked binding to BAF3-3E6 cells expressing human TSLPR and IL7R.
Assay [17] concerns the target T3, human TSLP-Fc. The description is as above. The source holds these as a separate data set.
In assay [18] the target is T3, human TSLP-Fc. The assay is described as above. The source holds these as a separate data set.
For assay [19], the target named is T3, human TSLP-Fc. The assay is described as above. The source holds these as a separate data set.
For assay [20], the target named is T2, Recombinant human TSLP-his. In words: SPR, BIAcore; protocol of Example 2.
For assay [21], the target named is T2, Recombinant human TSLP-his. In words: BLI, Octet; TSLP-his loaded on APS biosensor, antibody in solution; 1:1 Langmuir fit. A general note: Biolayer interferometry detects binding as a change in optical thickness at a sensor tip.
Assay [22] addresses T2, Recombinant human TSLP-his. In words: capture ELISA: antibody captured on anti-IgG Fc coat, biotin-labeled human TSLP-his detected with streptavidin-HRP. This is another data set of the same source.
Assay [23] deals with T2, Recombinant human TSLP-his. The assay is described as above. This is another data set of the same source.
Assay [24] deals with T2, Recombinant human TSLP-his. The description is as above. The source holds these as a separate data set.
The target of assay [25] is T1, Recombinant cynomolgus monkey TSLP-his. Description: indirect ELISA on coated cynomolgus TSLP-his; the row head of the drawn table reads IC50 although the curve rises (EC50 values were reported).
For assay [26] the target is unchanged. Description: SPR, Biacore T200; cynomolgus TSLP-his amine-coupled to CM5 chip, antibody as analyte.

Like-named read-outs stand apart in the source and are kept apart here.

B1: Mouse D1D8H9F7 (antibody, V domains shown)
VH: QVQLQQSGADLVRPGSSVKISCKTSGFAFSSYYMNWVKQRPGQGLEWIGQIYPGDGETNYNGKFKDKATLTADKSSSTVYMQLSSLTSEDSAVYFCARAGYSDYVYAMDYWGQGTSVTVSS
VL: EIVLTQSPALMAASPGEKVTIICSVSSSITSSNLHWYQQKSETSPKPWIYGTSNLASGVPVRFSGSGSGTSYSLTISSMEAEDAATYYCQQWSSFPLTFGSGTKLEIK
notes: Mouse hybridoma mAb
As for B1, in [1], the binding result is “no binding (tested: about 67 nM)”. Besides, in assay [2], the Kd is 180 pM, the dissociation rate constant (koff) is 3.09e-05 s⁻¹ and the on-rate (kon) amounted to 172000 M⁻¹ s⁻¹. In assay [3], the EC50 was 126 pM. In addition, the IC50 with human TSLP-Fc [4] amounted to 500 pM. This molecule also came in with an IC50 in the assay with human TSLP-Fc [5] of 1830 pM.

B2: Tezepelumab (antibody, human IgG2, lambda, V domains shown)
VH: QMQLVESGGGVVQPGRSLRLSCAASGFTFRTYGMHWVRQAPGKGLEWVAVIWYDGSNKHYADSVKGRFTITRDNSKNTLNLQMNSLRAEDTAVYYCARAPQWELVHEAFDIWGQGTMVTVSS
VL: SYVLTQPPSVSVAPGQTARITCGGNNLGSKSVHWYQQKPGQAPVLVVYDDSDRPSWIPERFSGSNSGNTATLTISRGEAGDEADYYCQVWDSSSDHVVFGGGTKLTVLG
notes: also called TSLP-BM; benchmark
Take B2: the Kd in [6] stood at 67.2 pM; in assay [8], 73.3 pM. In addition, the EC50 in assay [1] was 126 pM; in [7] it was 105 pM. Further, the IC50 with human TSLP-Fc [9] stood at 180 pM; with human TSLP-Fc [10] it was 495 pM; in the assay with human TSLP-Fc [11], 486 pM; with human TSLP-Fc [12], 5780 pM; with human TSLP-Fc [13], 990 pM; with human TSLP-Fc [4], 506 pM. Further, the IC50 is 77.7 pM with human TSLP-Fc [14]; 6270 pM in the assay with human TSLP-Fc [15]; 728 pM in the assay with human TSLP-Fc [16]; 760 pM in the assay with human TSLP-Fc [17]; 1480 pM with human TSLP-Fc [18]; 1450 pM with human TSLP-Fc [19].

B3: mouse 1C5F12E9 (antibody, V domains shown)
VH: QVQLQQPGTELVKPGASVKMSCKASGYTFTTYWMHWVKQRPGQGLEWIGVIDPSDSDTTYNQKFKGKATLTVDTSSSTAYMQLSSLTSEDSAVYYCTRSLDGYYDYWGQGTTLTVSS
VL: DIQMTQSPASLSASVGETVTITCRPTENIYSYLAWYQQKQGKSPHLLVYFARTLAEGVPSRFSGSGSGTQFSLKINSLQPEDFGIYYCQHHYGTPWTFGGGTKLEIK
notes: also called mouse anti-TSLP 1C5F12E9 antibody
For the molecule B3, the Kd in assay [20] was below 96.6 pM; in assay [6] it was below 34.6 pM; in assay [21] it was 226 pM; in assay [2], below 110 pM. Also, the koff was below 1e-05 s⁻¹ in [20], below 1e-05 s⁻¹ in assay [6], 0.000135 s⁻¹ in assay [21] and below 1e-05 s⁻¹ in [2]. Moreover, the kon is 104000 M⁻¹ s⁻¹ in assay [20], 289000 M⁻¹ s⁻¹ in assay [6], 600000 M⁻¹ s⁻¹ in [21] and 91100 M⁻¹ s⁻¹ in assay [2]. The half-maximal effective concentration (EC50) in assay [1] came out at 100 pM; in assay [7], 202 pM; in [22], 360 pM; in [23], 160 pM; in assay [3], 146 pM; in assay [24] it was 151 pM. Further, the EC50 in assay [25] worked out at 407 pM. Also, the IC50 in the assay with human TSLP-Fc [9] came out at 150 pM; in the assay with human TSLP-Fc [10], 262 pM; with human TSLP-Fc [11], 366 pM; with human TSLP-Fc [13], 694 pM; with human TSLP-Fc [4], 391 pM; with human TSLP-Fc [14], 139 pM. The IC50 with human TSLP-Fc [16] turned out to be 514 pM; in the assay with human TSLP-Fc [17], 625 pM; in the assay with human TSLP-Fc [18], 1630 pM; with human TSLP-Fc [19], 2410 pM.

B4: Mouse D1C2H1H1 (antibody, V domains shown)
VH: QVTLKESGPGILQPSQTLSLTCSFSGFSLSTYGMGIGWIRLPSGKGLEWLASIWWDDNRYFNAALKSRLTISKDASKNQVFLKIASVDTADTATYYCARIEDGYYSYHSYWGQGTLVTVSA
VL: DIVLTQSPASLAVSLGQRATISCKASQSVDFDGDSYMNWFQQKPGQPPKLLIYAASNLVSGIPARFSGSGSGTDFTLNIHPVEEEDAATYYCQQIDEDPYTFGGGTKLEIE
notes: Mouse hybridoma mAb
Regarding B4, the EC50 in assay [1] amounted to 4180 pM; in assay [3], 170 pM. The Kd in assay [26] is 7230 pM; in [2], below 14.9 pM. For the same molecule, the koff in assay [2] was below 1e-05 s⁻¹. The kon in [2] amounted to 672000 M⁻¹ s⁻¹. In addition, the IC50 with human TSLP-Fc [10] was 120 pM; in the assay with human TSLP-Fc [4], 114 pM; with human TSLP-Fc [18] it was 2140 pM.

The record behind these values is patent US20220289833A1 (BIOSION, published 2022).
